According to patent US20160137746A1, “METHODS FOR TREATING HIGH CARDIOVASCULAR RISK PATIENTS WITH HYPERCHOLESTEROLEMIA” (Sanofi Biotechnology, priority 2014, published 2016):

Test system: high cardiovascular risk patients with hypercholesterolemia
Experiment: ODYSSEY COMBO II: safety (TEAEs, adjudicated CV events, laboratory parameters, low LDL-C)
[1] = alirocumab patients with two consecutive LDL-C ≦25 mg/dL (n = 105), number (%) of patients
[2] = safety population at 52 weeks, all patients, number (%) of patients

Protocol: Safety assessments during both studies were as follows. Safety was assessed through adverse event (AE) reporting (including adjudicated cardiovascular events), laboratory analyses, and vital signs measurement. Since the LDL-C-lowering effects of PCSK9 inhibition on top of a statin are unknown, a number of AEs were defined as being of special interest and were monitored, including alanine aminotransferase abnormalities, allergic events, hemolytic anemia, pregnancy, overdose with study drug, neurologic events, ophthalmic events, and local injection site reactions.
Safety Analyses were as follows. AEs (including adjudicated cardiovascular events), laboratory parameters, and vital signs were reported descriptively, based on the safety population (all randomized patients who received at least 1 dose or partial dose of study treatment). The safety analysis focused on the treatment-emergent AE period defined as the time from the first double-blind dose to the last double-blind dose of the investigational product +70 days (10 weeks).
The safety population included all randomized patients who received at least one dose or part of a dose of the double-blind IMP.
Safety analyses were descriptive, performed on the safety population according to treatment actually received. For analysis of TEAE and PCSA, the safety analysis focused on the TEAE period defined as the time from the first dose of double-blind IMP administration (capsule or injection, whichever comes first) up to 70 days after the last double-blind injection.

With “Alirocumab: human anti-PCSK9 antibody; HCVR SEQ ID NO:1, LCVR SEQ ID NO:6; CDRs SEQ ID NOs 2/3/4/7/8/10” as the substance, how does the “Laboratory parameters: Blood glucose increased” value [1] read?
Its value is 1 (1.0).

What about the “Laboratory parameters: Hemoglobin decreased” value [1] of the same substance?
The value was 3 (2.9).

What about the “Patients experiencing any TEAE” value [1] of the same substance?
The value was 72 (68.6).

What about the “TEAE preferred term: Accidental overdose” value [1] of the same substance?
Its value is 6 (5.7).

And the “TEAE preferred term: Angina pectoris” value [1]?
Its value is 2 (1.9).

And the “TEAE preferred term: Arthralgia” value [1]?
The value was 5 (4.8).

What about the “TEAE preferred term: Dizziness” value [1] of the same substance?
The value was 5 (4.8).

And the “TEAE preferred term: Headache” value [1]?
Its value is 4 (3.8).

What about the “TEAE preferred term: Hypertension” value [1] of the same substance?
The value was 3 (2.9).

And the “TEAE preferred term: Influenza” value [1]?
Its value is 3 (2.9).

What about the “TEAE preferred term: Myalgia” value [1] of the same substance?
Its value is 4 (3.8).

What about the “TEAE preferred term: Nasopharyngitis” value [1] of the same substance?
Its value is 10 (9.5).

And the “TEAE preferred term: Upper respiratory tract infection” value [1]?
The value was 4 (3.8).

What about the “TEAE system organ class: Blood and lymphatic system disorders” value [1] of the same substance?
Its value is 4 (3.8).

And the “TEAE system organ class: Cardiac disorders” value [1]?
The value was 14 (13.3).

And the “TEAE system organ class: Eye disorders” value [1]?
The value was 2 (1.9).

And the “TEAE system organ class: Gastrointestinal disorders” value [1]?
The value was 19 (18.1).

What about the “TEAE system organ class: General disorders and administration site conditions” value [1] of the same substance?
Its value is 10 (9.5).

And the “TEAE system organ class: Infections and infestations” value [1]?
The value was 35 (33.3).

And the “TEAE system organ class: Injury, poisoning, and procedural complications” value [1]?
The value was 10 (9.5).

And the “TEAE system organ class: Investigations” value [1]?
The value was 7 (6.7).

And the “TEAE system organ class: Metabolism and nutrition disorders” value [1]?
The value was 6 (5.7).

And the “TEAE system organ class: Musculoskeletal and connective tissue disorders” value [1]?
The value was 19 (18.1).

And the “TEAE system organ class: Neoplasms, benign, malignant and unspecified (including cysts and polyps)” value [1]?
The value was 5 (4.8).

What about the “TEAE system organ class: Nervous system disorders” value [1] of the same substance?
The value was 17 (16.2).

And the “TEAE system organ class: Psychiatric disorders” value [1]?
Its value is 2 (1.9).

And the “TEAE system organ class: Renal and urinary disorders” value [1]?
Its value is 7 (6.7).

What about the “TEAE system organ class: Reproductive system and breast disorders” value [1] of the same substance?
Its value is 4 (3.8).

What about the “TEAE system organ class: Respiratory, thoracic, and mediastinal disorders” value [1] of the same substance?
Its value is 11 (10.5).

What about the “TEAE system organ class: Skin and subcutaneous tissue disorders” value [1] of the same substance?
The value was 10 (9.5).

What about the “TEAE system organ class: Vascular disorders” value [1] of the same substance?
Its value is 4 (3.8).

What about the Adjudicated cardiovascular events (in vivo) of the same substance?
Its Adjudicated cardiovascular events is 4.8%.

And the SOC gastrointestinal disorders (in vivo)?
Its SOC gastrointestinal disorders is 15.0%.

What about the “SOC musculoskeletal and connective tissue disorders” value (in vivo) of the same substance?
The value was 19.6%.

And the “Safety in patients with two consecutive calculated LDL-C <25 mg/dL” value (in vivo)?
The value was “No particular safety concern”.

What about the “Treatment-emergent local injection site reactions” value (in vivo) of the same substance?
Its value is 2.5%.

What about the “Patients who experienced at least one TEAE” value (mean 58 weeks' follow-up) of the same substance?
The value was 71.2%.

What about the Serious adverse event (mean 58 weeks' follow-up) of the same substance?
Its Serious adverse event is 18.8%.

What about the “TEAE leading to death” value (mean 58 weeks' follow-up) of the same substance?
Its value is 2 (0.4%) n (%).

What about the “TEAEs leading to treatment discontinuation” value (mean 58 weeks' follow-up) of the same substance?
The value was 7.5%.

And the Tolerability (overall results)?
The Tolerability was “well-tolerated”.

And the “Time to the first calculated LDL-C value <15 mg/dL, mean” value (safety population)?
Its value is 15.07 weeks.

What about the “Time to the first calculated LDL-C value <15 mg/dL, median” value (safety population) of the same substance?
Its value is 9.14 weeks.

And the “Time to the first calculated LDL-C value <25 mg/dL, mean” value (safety population)?
Its value is 12.56 weeks.

What about the “Time to the first calculated LDL-C value <25 mg/dL, median” value (safety population) of the same substance?
The value was 5.14 weeks.

What about the “Laboratory parameters: Blood glucose increased” value [2] of the same substance?
Its value is 1 (0.2).

What about the “Laboratory parameters: Hemoglobin decreased” value [2] of the same substance?
The value was 4 (0.8).

What about the “Patients experiencing any TEAE” value [2] of the same substance?
Its value is 341 (71.2).

What about the “TEAE preferred term: Accidental overdose” value [2] of the same substance?
The value was 30 (6.3).

What about the “TEAE preferred term: Angina pectoris” value [2] of the same substance?
The value was 12 (2.5).

And the “TEAE preferred term: Arthralgia” value [2]?
The value was 19 (4.0).

And the “TEAE preferred term: Dizziness” value [2]?
The value was 23 (4.8).

What about the “TEAE preferred term: Headache” value [2] of the same substance?
The value was 21 (4.4).

And the “TEAE preferred term: Hypertension” value [2]?
Its value is 18 (3.8).

And the “TEAE preferred term: Influenza” value [2]?
Its value is 17 (3.5).

What about the “TEAE preferred term: Myalgia” value [2] of the same substance?
Its value is 21 (4.4).

And the “TEAE preferred term: Nasopharyngitis” value [2]?
Its value is 18 (3.8).

And the “TEAE system organ class: Blood and lymphatic system disorders” value [2]?
The value was 11 (2.3).

What about the “TEAE system organ class: Cardiac disorders” value [2] of the same substance?
Its value is 60 (12.5).

What about the “TEAE system organ class: Eye disorders” value [2] of the same substance?
The value was 23 (4.8).

What about the “TEAE system organ class: Gastrointestinal disorders” value [2] of the same substance?
The value was 72 (15.0).

And the “TEAE system organ class: General disorders and administration site conditions” value [2]?
Its value is 56 (11.7).

And the “TEAE system organ class: Injury, poisoning, and procedural complications” value [2]?
Its value is 61 (12.7).

What about the “TEAE system organ class: Investigations” value [2] of the same substance?
Its value is 35 (7.3).

What about the “TEAE system organ class: Metabolism and nutrition disorders” value [2] of the same substance?
The value was 27 (5.6).

And the “TEAE system organ class: Musculoskeletal and connective tissue disorders” value [2]?
The value was 94 (19.6).

What about the “TEAE system organ class: Neoplasms, benign, malignant and unspecified (including cysts and polyps)” value [2] of the same substance?
The value was 15 (3.1).
